Test results as given in publication PMC8976717 (The Plant journal : for cell and molecular biology, 2021).

Target: the molecule itself
Assay: non-reducing SDS-PAGE

B1: GAUT1Δ167 (Arabidopsis GALACTURONOSYLTRANSFERASE 1, truncated at the in vivo cleavage site between residues 167 and 168) (enzyme, Arabidopsis thaliana, UniProt Q9LE59 168-673, looked up)
chain: RANELVQHNDDTILKLENAAIERSKSVDSAVLGKYSIWRRENENDNSDSNIRLMRDQVIMARVYSGIAKLKNKNDLLQELQARLKDSQRVLGEATSDADLPRSAHEKLRAMGQVLAKAKMQLYDCKLVTGKLRAMLQTADEQVRSLKKQSTFLAQLAAKTIPNPIHCLSMRLTIDYYLLSPEKRKFPRSENLENPNLYHYALFSDNVLAASVVVNSTIMNAKDPSKHVFHLVTDKLNFGAMNMWFLLNPPGKATIHVENVDEFKWLNSSYCPVLRQLESAAMREYYFKADHPTSGSSNLKYRNPKYLSMLNHLRFYLPEVYPKLNKILFLDDDIIVQKDLTPLWEVNLNGKVNGAVETCGESFHRFDKYLNFSNPHIARNFNPNACGWAYGMNMFDLKEWKKRDITGIYHKWQNMNENRTLWKLGTLPPGLITFYGLTHPLNKAWHVLGLGYNPSIDKKDIENAAVVHYNGNMKPWLELAMSKYRPYWTKYIKFDHPYLRRCNLHE
binding result: binds
